The target of assay [1] is T1, recombinant human CD80 (Sino Biological Inc.) (human, UniProt P33681 35-242).
T1 sequence (looked up): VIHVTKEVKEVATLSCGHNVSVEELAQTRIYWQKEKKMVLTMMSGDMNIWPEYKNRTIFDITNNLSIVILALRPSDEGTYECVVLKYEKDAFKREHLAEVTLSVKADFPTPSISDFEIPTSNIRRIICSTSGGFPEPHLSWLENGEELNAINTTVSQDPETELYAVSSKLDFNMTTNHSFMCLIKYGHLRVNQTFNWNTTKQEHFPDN
Put plainly: ELISA, plate coated with 1 ug/mL recombinant human CD80 (printed B7-1), anti-human IgG-HRP, OD450; antibody concentration not shown. The procedure:
(§1) The plate was washed 5 times with PBST, and then blocked using PBST with 1% BSA, 300 μL/well, and incubated at 25° C. for 1 hour, and then washed 5 times with PBST. […] The horseradish peroxidase-labeled anti-human IgG antibody (Chemicon, catalog number AP309P) diluted 1:10000 in PBST with 1% BSA was then added, 100 μL per well, and incubated at 25° C. for 1 hour. The plate was washed 5 times with PBST. The colorimetric substrate TMB was added, 100 μL/well, and developed at room temperature for 10 minutes. 1M H₂SO₄ was added, 100 μL/well, to stop the development. The absorbance at 450 nm was read on a microplate reader.
On the technique in general: In an ELISA, binding on a coated surface is turned into a signal by an enzyme label.

Assay [2] concerns the target T2, recombinant human PD-L1 (Sino Biological Inc.) (human, UniProt Q9NZQ7 19-239). The assay is described as follows: ELISA, human PD-L1 coated. On the procedure: A 96-well high-adsorption ELISA plate was coated with 1 μg/mL of the recombinant human PD-L1 (Sino Biological Inc.) at 100 μL per well using carbonate buffer solution, pH=9.6 at 4° C. overnight. The plate was washed 5 times with PBST, and then blocked using PBST with 1% BSA, 300 μL/well, and incubated at 25° C. for 1 hour, and then washed 5 times with PBST. […] The horseradish peroxidase-labeled anti-human IgG antibody (Chemicon, catalog number AP309P) diluted 1:10000 in PBST with 1% BSA was then added, 100 μL per well, and incubated at 25° C. for 1 hour. The plate was washed 5 times with PBST. The colorimetric substrate TMB was added, 100 μL/well, and developed at room temperature for 10 minutes. 1M H₂SO₄ was added, 100 μL/well, to stop the development. The absorbance at 450 nm was read on a microplate reader.

The target of assay [3] is T2, recombinant human PD-L1 (Sino …). The assay is described as follows: SPR, Biacore X100. The procedure:
This instrument utilizes optical surface plasmon resonance technology to detect the association and dissociation between the molecules coated on the biochip and the molecules to be tested. Association constants and dissociation constants were analyzed and calculated by Biacore X100 evaluation software. […]

Assay [4] concerns the target recombinant human CD28 (Sino Biological Inc.) (human, UniProt P10747 19-152). The assay is described as follows: ELISA, plate coated with 1 ug/mL recombinant human CD28, anti-human IgG-HRP, OD450; antibody concentration not shown. The procedure:
as §1

T2 sequence (Q9NZQ7 19-239 limits assumed): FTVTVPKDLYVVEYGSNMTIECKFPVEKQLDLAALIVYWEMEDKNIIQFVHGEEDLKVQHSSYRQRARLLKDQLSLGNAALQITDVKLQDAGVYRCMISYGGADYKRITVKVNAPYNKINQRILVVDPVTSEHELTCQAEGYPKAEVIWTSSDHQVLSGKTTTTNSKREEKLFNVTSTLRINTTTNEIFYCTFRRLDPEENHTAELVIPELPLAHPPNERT

B1: chimeric anti-human PD-L1 monoclonal antibody (antibody, human IgG1, kappa, V domains shown)
VH: EVQLQQSGAELVKPGASVKLSCTASGFNIEDTYIHWVMQRPEQGLEWIGRIDPANGNTKYDPKFQGKATITADTSSNTAYLQLSSLTSEDTAVYYCGRGLGAWFAYWGQGTLVTVSA
VL: DIVMTQSHKVMSTSVGDRVTITCKASQDVHTAVAWIHQKPGQSPKLLIYSASNRYTGVPDRFTGSGSGTDFTFTISSVQAEDLAVYYCQQHYITPLTFGAGTTLELKR
notes: expressed in ExpiCHO cells; also called Chimeric mAb; Chimeric antibody
One may read the EC50 as the midpoint of the concentration-response curve. As a reminder, the Kd is the concentration at which binding is half-saturated. As a reminder, the koff is a measure of how fast the partners let go of each other. As usually defined, the kon is a measure of how fast the partners come together. For B1, in assay [1], the binding result is given as “no binding”. The EC50 in assay [2] came to 0.066 nM. In addition, in assay [3], the Kd is 1.17 nM, the dissociation rate constant (koff) was found to be 0.000594 s⁻¹ and the on-rate (kon) was 507000 M⁻¹ s⁻¹. In addition, the binding result in assay [4] is given as “no binding”.

These data come from US20240301068A1 (BEIJING HANMI PHARMACEUTICAL, published 2024).
